According to US9017992:
One block for each substance: values may come before it.

How the values were obtained:
[1] = biological target: mouse anti-human BCL2 oncoprotein, Clone 124 (DakoCytomation code No. M0887); assay: IHC on FFPE tonsil: unconjugated M0887 1:100 (0.015 uM) on tissue, then K5007 GaM:HRP 30 min
Human CD20cy (human) [2] = biological target: Human CD20cy (human) (UniProt P11836); assay: IHC on multi-block FFPE tissue, primary 1:8000, K5007 reference
Human CD20cy (human) [3] = biological target: Human CD20cy (human) (UniProt P11836); assay: IHC on FFPE tonsil, primary 1:8000, EnVision-based detection K5007
Human CD20cy (human) [4] = biological target: Human CD20cy (human) (UniProt P11836); assay: IHC on FFPE tonsil, primary 1:2000, PNA based detection (D12102 + D12094)
Human CD20cy (human) [5] = biological target: Human CD20cy (human) (UniProt P11836); assay: IHC on FFPE tonsil, primary 1:8000, PNA based detection (D12102 + D12094)
Human CD20cy (human) [6] = biological target: Human CD20cy (human) (UniProt P11836); assay: IHC on FFPE tonsil, primary 1:14000, PNA based detection (D12102 + D12094)
Human CD20cy (human) [7] = biological target: Human CD20cy (human) (UniProt P11836); assay: IHC on multi-block FFPE tissue, primary 1:8000, PNA system (D12102 + D12094)
Human CD45 LCA (human) [8] = biological target: Human CD45 LCA (human) (UniProt P08575); assay: IHC on multi-block FFPE tissue, primary 1:1600, K5007 reference
Human CD45 LCA (human) [9] = biological target: Human CD45 LCA (human) (UniProt P08575); assay: IHC on multi-block FFPE tissue, primary 1:1600, PNA system (D12102 + D12094)
Human CD68 (human) [10] = biological target: Human CD68 (human) (UniProt P34810); assay: IHC on multi-block FFPE tissue, primary 1:800, K5007 reference
UniProt P34810, sequence (P34810 22-354 limits assumed): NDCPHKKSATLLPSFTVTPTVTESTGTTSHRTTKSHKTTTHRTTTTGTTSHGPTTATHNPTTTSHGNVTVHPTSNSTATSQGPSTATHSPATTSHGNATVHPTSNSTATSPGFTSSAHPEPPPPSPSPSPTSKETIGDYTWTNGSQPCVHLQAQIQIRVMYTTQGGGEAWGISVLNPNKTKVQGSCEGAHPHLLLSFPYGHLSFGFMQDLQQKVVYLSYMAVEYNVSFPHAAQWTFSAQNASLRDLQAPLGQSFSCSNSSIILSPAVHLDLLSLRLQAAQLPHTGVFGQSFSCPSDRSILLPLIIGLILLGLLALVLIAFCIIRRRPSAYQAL

Human CD68 (human) [11] = biological target: Human CD68 (human) (UniProt P34810); assay: IHC on multi-block FFPE tissue, primary 1:800, PNA system (D12102 + D12094)
[12] = biological target: Human Cytokeratin (human); assay: IHC on multi-block FFPE tissue, primary 1:900, K5007 reference
[13] = biological target: Human Cytokeratin (human); assay: IHC on FFPE tonsil, primary 1:900, EnVision-based detection K5007
[14] = biological target: Human Cytokeratin (human); assay: IHC on FFPE tonsil, primary 1:900, PNA based detection (D12102 + D12094)
[15] = biological target: Human Cytokeratin (human); assay: IHC on FFPE tonsil, primary 1:1600, PNA based detection (D12102 + D12094)
[16] = biological target: Human Cytokeratin (human); assay: IHC on multi-block FFPE tissue, primary 1:900, PNA system (D12102 + D12094)
[17] = biological target: Human Cytokeratin (human); assay: Double IHC on multi tissue sections, M3515 1:50, GaM-dex-PNA1 + PNA2-dex-HRP, DAB+
[18] = biological target: Human Cytokeratin (human); assay: Double IHC on multi tissue sections, M3515 1:50, GaM-dex-PNA1 (209-149) + PNA2-dex-HRP (209-157), detection method 1
[19] = biological target: Human Cytokeratin (human); assay: Double IHC on multi tissue sections, M3515 1:50, GaM-dex-PNA1 (209-149) + PNA2-dex-HRP (209-157), detection method 2
[20] = biological target: Human Cytokeratin (human); assay: IHC on FFPE tonsil, primary 1:300, PNA based detection (GAM/dextran/PNA1 D12102 + HRP/dextran/PNA2 D12094); score 0 to 3+
Human Desmin (human) [21] = biological target: Human Desmin (human) (UniProt P17661); assay: IHC on multi-block FFPE tissue, primary 1:1200, K5007 reference
Human Desmin (human) [22] = biological target: Human Desmin (human) (UniProt P17661); assay: IHC on multi-block FFPE tissue, primary 1:1200, PNA system (D12102 + D12094)
[23] = biological target: Human Epithelial Membrane Antigen (human) (UniProt P15941); assay: IHC on multi-block FFPE tissue, primary 1:6400, K5007 reference
UniProt P15941, sequence (P15941 24-1255 limits assumed): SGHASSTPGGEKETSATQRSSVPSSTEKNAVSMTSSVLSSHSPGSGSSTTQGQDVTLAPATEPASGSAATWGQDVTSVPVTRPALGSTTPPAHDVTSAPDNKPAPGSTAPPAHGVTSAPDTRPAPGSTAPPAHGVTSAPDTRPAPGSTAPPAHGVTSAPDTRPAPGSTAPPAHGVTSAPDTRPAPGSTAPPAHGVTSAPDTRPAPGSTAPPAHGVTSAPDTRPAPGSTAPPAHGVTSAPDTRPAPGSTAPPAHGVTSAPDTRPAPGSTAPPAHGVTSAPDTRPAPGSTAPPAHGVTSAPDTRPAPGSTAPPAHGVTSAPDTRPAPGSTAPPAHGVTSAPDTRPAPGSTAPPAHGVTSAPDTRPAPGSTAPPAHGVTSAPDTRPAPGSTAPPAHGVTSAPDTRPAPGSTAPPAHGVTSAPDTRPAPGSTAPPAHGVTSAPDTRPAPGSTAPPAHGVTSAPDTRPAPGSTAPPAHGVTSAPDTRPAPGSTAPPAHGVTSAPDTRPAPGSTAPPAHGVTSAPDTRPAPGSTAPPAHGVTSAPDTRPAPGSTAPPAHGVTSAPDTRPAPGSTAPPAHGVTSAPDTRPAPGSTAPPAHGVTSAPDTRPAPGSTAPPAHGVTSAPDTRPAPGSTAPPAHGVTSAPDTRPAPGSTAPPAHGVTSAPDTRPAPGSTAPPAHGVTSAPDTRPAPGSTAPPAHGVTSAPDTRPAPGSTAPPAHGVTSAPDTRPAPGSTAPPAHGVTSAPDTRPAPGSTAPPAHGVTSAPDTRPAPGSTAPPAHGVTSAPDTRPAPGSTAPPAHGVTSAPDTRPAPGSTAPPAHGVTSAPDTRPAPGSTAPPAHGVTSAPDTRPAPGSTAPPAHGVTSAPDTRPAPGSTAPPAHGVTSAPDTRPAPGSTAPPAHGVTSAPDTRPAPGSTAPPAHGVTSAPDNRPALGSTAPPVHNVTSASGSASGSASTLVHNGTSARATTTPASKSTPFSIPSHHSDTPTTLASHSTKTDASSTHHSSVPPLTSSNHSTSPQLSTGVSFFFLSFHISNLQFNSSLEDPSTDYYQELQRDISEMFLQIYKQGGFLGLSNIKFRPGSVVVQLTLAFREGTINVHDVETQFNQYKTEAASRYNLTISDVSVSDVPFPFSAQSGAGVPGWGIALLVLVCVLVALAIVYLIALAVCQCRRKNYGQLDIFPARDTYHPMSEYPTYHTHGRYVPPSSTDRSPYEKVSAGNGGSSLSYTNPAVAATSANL

[24] = biological target: Human Epithelial Membrane Antigen (human) (UniProt P15941); assay: IHC on multi-block FFPE tissue, primary 1:6400, PNA system (D12102 + D12094)
[25] = biological target: Human Estrogen Receptor (human) (UniProt P03372); assay: IHC on multi-block FFPE tissue, primary 1:200, K5007 reference
[26] = biological target: Human Estrogen Receptor (human) (UniProt P03372); assay: IHC on multi-block FFPE tissue, primary 1:200, PNA system (D12102 + D12094)
[27] = biological target: Human Ki-67 Antigen (human) (UniProt P46013); assay: IHC on multi-block FFPE tissue, primary 1:1200, K5007 reference
UniProt P46013, sequence (P46013 whole entry): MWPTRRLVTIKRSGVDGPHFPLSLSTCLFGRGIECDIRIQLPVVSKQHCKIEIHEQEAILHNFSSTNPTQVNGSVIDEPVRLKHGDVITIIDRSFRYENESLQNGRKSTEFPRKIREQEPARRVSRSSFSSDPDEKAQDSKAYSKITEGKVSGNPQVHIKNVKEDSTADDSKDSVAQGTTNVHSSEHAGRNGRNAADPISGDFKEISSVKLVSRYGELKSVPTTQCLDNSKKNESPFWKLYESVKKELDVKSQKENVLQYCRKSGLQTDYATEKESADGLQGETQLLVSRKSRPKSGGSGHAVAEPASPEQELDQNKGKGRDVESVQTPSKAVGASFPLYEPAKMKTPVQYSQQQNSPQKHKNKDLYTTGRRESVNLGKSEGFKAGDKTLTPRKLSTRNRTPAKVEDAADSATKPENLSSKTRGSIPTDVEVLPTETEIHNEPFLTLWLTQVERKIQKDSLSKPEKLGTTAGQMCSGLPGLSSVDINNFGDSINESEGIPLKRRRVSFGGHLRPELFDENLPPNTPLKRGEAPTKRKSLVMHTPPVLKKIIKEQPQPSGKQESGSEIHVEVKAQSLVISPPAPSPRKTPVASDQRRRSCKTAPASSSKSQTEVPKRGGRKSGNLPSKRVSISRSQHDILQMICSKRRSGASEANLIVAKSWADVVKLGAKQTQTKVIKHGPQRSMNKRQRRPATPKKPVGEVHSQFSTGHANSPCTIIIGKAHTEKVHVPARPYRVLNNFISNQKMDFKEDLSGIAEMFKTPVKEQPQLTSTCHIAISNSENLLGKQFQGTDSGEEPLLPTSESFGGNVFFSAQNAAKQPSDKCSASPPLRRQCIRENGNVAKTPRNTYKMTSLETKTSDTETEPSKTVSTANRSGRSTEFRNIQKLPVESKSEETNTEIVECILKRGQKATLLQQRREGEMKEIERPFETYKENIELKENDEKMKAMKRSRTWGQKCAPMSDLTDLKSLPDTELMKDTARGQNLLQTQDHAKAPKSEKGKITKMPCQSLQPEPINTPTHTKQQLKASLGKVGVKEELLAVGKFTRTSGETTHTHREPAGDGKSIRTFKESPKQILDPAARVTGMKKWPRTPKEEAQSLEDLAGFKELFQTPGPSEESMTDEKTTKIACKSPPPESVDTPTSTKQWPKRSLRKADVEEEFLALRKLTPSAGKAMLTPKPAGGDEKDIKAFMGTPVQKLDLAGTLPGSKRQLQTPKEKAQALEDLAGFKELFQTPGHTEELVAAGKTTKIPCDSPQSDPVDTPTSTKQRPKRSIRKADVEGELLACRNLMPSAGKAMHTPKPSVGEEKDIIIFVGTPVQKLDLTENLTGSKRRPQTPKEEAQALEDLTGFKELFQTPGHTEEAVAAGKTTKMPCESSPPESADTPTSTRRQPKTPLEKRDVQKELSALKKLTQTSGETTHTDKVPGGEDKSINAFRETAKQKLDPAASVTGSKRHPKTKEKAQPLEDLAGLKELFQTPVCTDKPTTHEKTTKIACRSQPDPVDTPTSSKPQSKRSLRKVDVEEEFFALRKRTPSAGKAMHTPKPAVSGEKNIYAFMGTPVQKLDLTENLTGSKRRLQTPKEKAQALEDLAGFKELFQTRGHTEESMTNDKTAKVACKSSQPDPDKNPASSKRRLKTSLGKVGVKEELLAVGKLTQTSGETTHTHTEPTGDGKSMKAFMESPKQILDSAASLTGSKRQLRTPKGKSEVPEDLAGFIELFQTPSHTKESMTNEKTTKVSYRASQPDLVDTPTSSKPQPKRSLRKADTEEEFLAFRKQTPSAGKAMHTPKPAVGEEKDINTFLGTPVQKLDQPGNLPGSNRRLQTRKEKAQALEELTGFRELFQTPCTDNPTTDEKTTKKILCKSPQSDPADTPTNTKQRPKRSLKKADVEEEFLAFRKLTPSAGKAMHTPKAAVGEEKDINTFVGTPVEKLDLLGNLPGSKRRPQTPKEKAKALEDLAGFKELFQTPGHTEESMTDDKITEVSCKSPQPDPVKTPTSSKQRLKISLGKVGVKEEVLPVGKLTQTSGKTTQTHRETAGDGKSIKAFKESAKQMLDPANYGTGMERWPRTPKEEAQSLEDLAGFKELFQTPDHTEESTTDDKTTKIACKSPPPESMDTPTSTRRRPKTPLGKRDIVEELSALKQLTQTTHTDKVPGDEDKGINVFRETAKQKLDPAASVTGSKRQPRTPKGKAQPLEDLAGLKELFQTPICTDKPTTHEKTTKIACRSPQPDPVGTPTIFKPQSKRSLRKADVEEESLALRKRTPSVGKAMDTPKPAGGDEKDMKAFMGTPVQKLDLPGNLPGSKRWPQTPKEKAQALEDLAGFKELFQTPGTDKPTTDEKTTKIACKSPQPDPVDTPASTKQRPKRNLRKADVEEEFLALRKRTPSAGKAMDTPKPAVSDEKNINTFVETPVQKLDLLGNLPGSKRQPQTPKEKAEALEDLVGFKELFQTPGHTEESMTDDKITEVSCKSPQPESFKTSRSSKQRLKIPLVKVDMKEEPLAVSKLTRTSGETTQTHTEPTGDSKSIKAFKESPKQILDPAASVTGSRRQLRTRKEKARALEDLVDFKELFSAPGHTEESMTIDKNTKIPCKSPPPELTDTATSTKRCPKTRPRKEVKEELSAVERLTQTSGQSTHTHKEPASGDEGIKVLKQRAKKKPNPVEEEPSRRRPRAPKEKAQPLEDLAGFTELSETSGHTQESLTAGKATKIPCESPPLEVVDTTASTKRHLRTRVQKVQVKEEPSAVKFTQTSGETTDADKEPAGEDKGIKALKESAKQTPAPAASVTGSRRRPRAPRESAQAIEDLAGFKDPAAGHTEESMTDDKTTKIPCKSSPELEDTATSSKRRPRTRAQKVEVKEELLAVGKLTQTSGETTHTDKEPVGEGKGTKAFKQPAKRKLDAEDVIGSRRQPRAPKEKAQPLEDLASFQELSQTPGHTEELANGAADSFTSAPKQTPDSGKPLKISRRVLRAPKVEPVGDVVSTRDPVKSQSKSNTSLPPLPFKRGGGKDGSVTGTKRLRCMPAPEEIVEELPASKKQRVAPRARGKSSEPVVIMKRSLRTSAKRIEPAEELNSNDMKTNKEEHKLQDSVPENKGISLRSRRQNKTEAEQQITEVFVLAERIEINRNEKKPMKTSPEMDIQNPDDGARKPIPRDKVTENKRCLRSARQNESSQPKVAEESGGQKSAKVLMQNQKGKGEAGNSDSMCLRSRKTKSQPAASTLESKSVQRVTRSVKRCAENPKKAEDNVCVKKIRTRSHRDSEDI

[28] = biological target: Human Ki-67 Antigen (human) (UniProt P46013); assay: IHC on FFPE tonsil, primary 1:1200, EnVision-based detection K5007
[29] = biological target: Human Ki-67 Antigen (human) (UniProt P46013); assay: IHC on FFPE tonsil, primary 1:400, PNA based detection (D12102 + D12094)
[30] = biological target: Human Ki-67 Antigen (human) (UniProt P46013); assay: IHC on FFPE tonsil, primary 1:1200, PNA based detection (D12102 + D12094)
[31] = biological target: Human Ki-67 Antigen (human) (UniProt P46013); assay: IHC on FFPE tonsil, primary 1:2400, PNA based detection (D12102 + D12094)
[32] = biological target: Human Ki-67 Antigen (human) (UniProt P46013); assay: IHC on multi-block FFPE tissue, primary 1:1200, PNA system (D12102 + D12094)
[33] = biological target: Human Ki-67 Antigen (human) (UniProt P46013); assay: IHC on multi tissue section, M7240 1:150, 3-layer PNA system with HRP, DAB+
[34] = biological target: Human Ki-67 Antigen (human) (UniProt P46013); assay: Double IHC on multi tissue sections, M7240 1:150, 3-layer PNA system with AP
[35] = biological target: Human Ki-67 Antigen (human) (UniProt P46013); assay: Double IHC on multi tissue sections, M7240 1:150, 3-layer PNA system with HRP, detection method 1
[36] = biological target: Human Ki-67 Antigen (human) (UniProt P46013); assay: Double IHC on multi tissue sections, M7240 1:150, 3-layer PNA system with HRP, detection method 2
[37] = biological target: Human Ki-67 Antigen (human) (UniProt P46013); assay: IHC on multi tissue section, M7240 1:150, 3-layer PNA system with AP / Permanent Red; first of two scores, taken as the specific one
Human p27 (human) [38] = biological target: Human p27 (human) (UniProt P46527); assay: IHC on multi-block FFPE tissue, primary 1:400, K5007 reference
Human p27 (human) [39] = biological target: Human p27 (human) (UniProt P46527); assay: IHC on multi-block FFPE tissue, primary 1:400, PNA system (D12102 + D12094)
Tonsil tissues = assay: IHC on FFPE tonsil, negative control IgG1 1:300, EnVision-based detection K5007
[40] = biological target: human BCL2 oncoprotein (human) (UniProt P10415); assay: IHC on multi-block FFPE tissue, primary 1:500, K5007 reference
[41] = biological target: human BCL2 oncoprotein (human) (UniProt P10415); assay: IHC on multi-block FFPE tissue, primary 1:500, PNA system (D12102 + D12094)

UniProt P11836, sequence (P11836 whole entry): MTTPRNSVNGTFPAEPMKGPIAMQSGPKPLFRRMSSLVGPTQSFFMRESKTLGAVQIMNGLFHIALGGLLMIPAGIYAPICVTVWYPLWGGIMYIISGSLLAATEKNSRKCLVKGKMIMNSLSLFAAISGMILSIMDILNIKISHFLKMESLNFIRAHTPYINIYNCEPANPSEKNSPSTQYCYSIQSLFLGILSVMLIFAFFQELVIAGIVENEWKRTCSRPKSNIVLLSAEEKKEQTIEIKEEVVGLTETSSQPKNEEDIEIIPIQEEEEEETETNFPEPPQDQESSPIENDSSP

- Specific staining intensity with K5007 [1]: 3 score
Substance: K5007 GaM:HRP complex (ChemMate EnVision Detection kit Rabbit/Mouse, DakoCytomation code No. K5007 bottle A) (antibody)

- Specific staining intensity (Human CD20cy (human) [2]): 1.5 score
- Specific staining intensity (Human CD20cy (human) [3]): 2 score
- Specific staining intensity (Human CD20cy (human) [4]): 3 score
- Specific staining intensity (Human CD20cy (human) [5]): 2.5 score
- Specific staining intensity (Human CD20cy (human) [6]): 1.5 score
- Specific staining intensity (Human CD20cy (human) [7]): 1.5 score
Substance: Monoclonal Mouse Anti-Human CD20cy (DakoCytomation code No. M0755) (antibody)

- Specific staining intensity [27]: 1.5 score
- Specific staining intensity [28]: 2 score
- Specific staining intensity [29]: 3 score
- Specific staining intensity [30]: 2.5 score
- Specific staining intensity [31]: 1.5 score
- Specific staining intensity [32]: 2 score
- Staining intensity score [33]: 2.5
- specific staining [34]: 2 score
- specific staining [35]: 1.5 score
- specific staining [36]: 1.5 score
- staining score [37]: 1
Substance: Monoclonal Mouse Anti-Human Ki-67 Antigen (DakoCytomation code No. M7240) (antibody)

- Specific staining intensity (Tonsil tissues): 0 score
Substance: mouse IgG1 negative control (DakoCytomation code No. X0931) (antibody)

- Specific staining intensity [40]: 2 score
- Specific staining intensity [41]: 2 score
Substance: mouse anti-human BCL2 oncoprotein, Clone 124 (DakoCytomation code No. M0887) (antibody)

The remaining lines, values behind:

Substance: Monoclonal Mouse Anti-Human CD45 LCA (DakoCytomation code No. M0701) (antibody)
- Specific staining intensity (Human CD45 LCA (human) [8]): 2 score
- Specific staining intensity (Human CD45 LCA (human) [9]): 3 score

Substance: Monoclonal Mouse Anti-Human CD68 (DakoCytomation code No. M0876) (antibody)
- Specific staining intensity (Human CD68 (human) [10]): 2 score
- Specific staining intensity (Human CD68 (human) [11]): 2 score

Substance: Monoclonal Mouse Anti-Human Cytokeratin (DakoCytomation code No. M3515) (antibody)
- Specific staining intensity [12]: 1.5 score
- Specific staining intensity [13]: 2 score
- Specific staining intensity [14]: 2.5 score
- Specific staining intensity [15]: 1.5 score
- Specific staining intensity [16]: 2 score
- specific staining [17]: 3 score
- specific staining [18]: 2.5 score
- specific staining [19]: 3 score
- Specific staining intensity [20]: 3 score

Substance: Monoclonal Mouse Anti-Human Desmin (DakoCytomation code No. M0760) (antibody)
- Specific staining intensity (Human Desmin (human) [21]): 1.5 score
- Specific staining intensity (Human Desmin (human) [22]): 1.5 score

Substance: Monoclonal Mouse Anti-Human Epithelial Membrane Antigen (DakoCytomation code No. M0613) (antibody)
- Specific staining intensity [23]: 1.5 score
- Specific staining intensity [24]: 2.5 score

Substance: Monoclonal Mouse Anti-Human Estrogen Receptor (DakoCytomation code No. M7047) (antibody)
- Specific staining intensity [25]: 2.5 score
- Specific staining intensity [26]: 3 score

Substance: Monoclonal Mouse Anti-Human p27 (DakoCytomation code No. M7203) (antibody)
- Specific staining intensity (Human p27 (human) [38]): 1.5 score
- Specific staining intensity (Human p27 (human) [39]): 2.5 score
